From US20140087995A1 (published 2014) come the findings set out here.

T1: human calcitonin receptor (human, UniProt P30988 25-474)
T1 construct: whole, on cells; Cell membranes from the stably transfected cell line (Assay VII); also called hCTR; hCT
T1 sequence (looked up): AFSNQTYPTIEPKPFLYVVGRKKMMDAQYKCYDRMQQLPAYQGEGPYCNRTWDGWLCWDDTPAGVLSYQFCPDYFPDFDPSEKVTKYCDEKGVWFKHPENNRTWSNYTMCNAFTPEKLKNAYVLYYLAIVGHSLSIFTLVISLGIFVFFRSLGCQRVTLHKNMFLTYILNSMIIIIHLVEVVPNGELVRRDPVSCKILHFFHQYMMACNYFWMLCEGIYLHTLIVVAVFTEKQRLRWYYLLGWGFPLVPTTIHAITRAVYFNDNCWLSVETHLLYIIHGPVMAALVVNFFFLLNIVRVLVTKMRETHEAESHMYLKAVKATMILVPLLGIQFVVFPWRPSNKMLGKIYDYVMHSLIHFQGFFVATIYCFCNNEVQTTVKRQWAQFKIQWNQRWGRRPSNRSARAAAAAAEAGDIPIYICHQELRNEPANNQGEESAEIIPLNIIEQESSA

T2: rat amylin receptor (rat calcitonin receptor + rat RAMP 3) (rat, UniProt P32214 25-516; Q9JJ73 23-147)
T2 construct: whole, on cells; Receptor complex in cell membranes prepared from transiently transfected BHK tk'ts 13 cells (Assay VI); also called rAmylin-R; rat amylin 3(a) receptor
T2 sequence (looked up) 1: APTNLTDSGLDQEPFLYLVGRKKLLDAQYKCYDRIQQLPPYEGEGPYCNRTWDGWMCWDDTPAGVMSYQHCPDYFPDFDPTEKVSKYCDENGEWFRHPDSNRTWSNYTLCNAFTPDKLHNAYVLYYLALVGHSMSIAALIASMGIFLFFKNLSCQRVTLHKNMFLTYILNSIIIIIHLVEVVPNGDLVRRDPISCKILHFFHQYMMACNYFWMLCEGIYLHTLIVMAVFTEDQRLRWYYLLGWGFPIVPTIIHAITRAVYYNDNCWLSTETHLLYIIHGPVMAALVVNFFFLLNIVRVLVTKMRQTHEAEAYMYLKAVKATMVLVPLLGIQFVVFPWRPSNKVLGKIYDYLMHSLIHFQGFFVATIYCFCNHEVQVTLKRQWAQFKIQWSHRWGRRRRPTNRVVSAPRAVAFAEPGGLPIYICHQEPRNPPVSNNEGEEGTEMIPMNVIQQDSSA
T2 sequence (looked up) 2: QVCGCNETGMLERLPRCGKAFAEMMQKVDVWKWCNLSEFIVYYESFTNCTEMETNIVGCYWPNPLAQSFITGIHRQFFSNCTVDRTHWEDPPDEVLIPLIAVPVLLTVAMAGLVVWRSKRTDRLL

T3: rat calcitonin receptor (rat, UniProt P32214 25-516)
T3 construct: whole, on cells; In cell membranes prepared from transiently transfected BHK tk'ts 13 cells (Assay VIII); also called rCTR; rat calcitonin (a) receptor
T3 sequence (looked up): T2 sequence (looked up) 1

B1: N^ε1-[(4S)-4-carboxy-4-(19-carboxynonadecanoylamino)butanoyl]-[Asp14,Arg17,Pro21,Pro27,Pro34,Arg35]-h-amylin (peptide)
peptide: K([γGlu-C20 diacid])CNTATCATQRLADFLRHSSPNFGAIPSSTNVGPRTY-NH2
modifications: disulfide 2-7; N-terminus assumed
SMILES: CC[C@H](C)[C@H](NC(=O)[C@H](C)NC(=O)CNC(=O)[C@H](Cc1ccccc1)NC(=O)[C@H](CC(N)=O)NC(=O)[C@@H]1CCCN1C(=O)[C@H](CO)NC(=O)[C@H](CO)NC(=O)[C@H](Cc1c[nH]cn1)NC(=O)[C@H](CCCNC(=N)N)NC(=O)[C@H](CC(C)C)NC(=O)[C@H](Cc1ccccc1)NC(=O)[C@H](CC(=O)O)NC(=O)[C@H](C)NC(=O)[C@H](CC(C)C)NC(=O)[C@H](CCCNC(=N)N)NC(=O)[C@H](CCC(N)=O)NC(=O)[C@@H](NC(=O)[C@H](C)NC(=O)[C@@H]1CSSC[C@H](NC(=O)[C@@H](N)CCCCNC(=O)CC[C@H](NC(=O)CCCCCCCCCCCCCCCCCCC(=O)O)C(=O)O)C(=O)N[C@@H](CC(N)=O)C(=O)N[C@@H]([C@@H](C)O)C(=O)N[C@@H](C)C(=O)N[C@@H]([C@@H](C)O)C(=O)N1)[C@@H](C)O)C(=O)N1CCC[C@H]1C(=O)N[C@@H](CO)C(=O)N[C@@H](CO)C(=O)N[C@H](C(=O)N[C@@H](CC(N)=O)C(=O)N[C@H](C(=O)NCC(=O)N1CCC[C@H]1C(=O)N[C@@H](CCCNC(=N)N)C(=O)N[C@H](C(=O)N[C@@H](Cc1ccc(O)cc1)C(N)=O)[C@@H](C)O)C(C)C)[C@@H](C)O
B2: N^ε1-[(4S)-4-carboxy-4-(19-carboxynonadecanoylamino)butanoyl]-[Asp14,Arg17,Pro21,Pro27,Pro34,Glu35]-h-amylin (peptide)
peptide: K([γGlu-C20 diacid])CNTATCATQRLADFLRHSSPNFGAIPSSTNVGPETY-NH2
modifications: disulfide 2-7; N-terminus assumed
SMILES: CC[C@H](C)[C@H](NC(=O)[C@H](C)NC(=O)CNC(=O)[C@H](Cc1ccccc1)NC(=O)[C@H](CC(N)=O)NC(=O)[C@@H]1CCCN1C(=O)[C@H](CO)NC(=O)[C@H](CO)NC(=O)[C@H](Cc1c[nH]cn1)NC(=O)[C@H](CCCNC(=N)N)NC(=O)[C@H](CC(C)C)NC(=O)[C@H](Cc1ccccc1)NC(=O)[C@H](CC(=O)O)NC(=O)[C@H](C)NC(=O)[C@H](CC(C)C)NC(=O)[C@H](CCCNC(=N)N)NC(=O)[C@H](CCC(N)=O)NC(=O)[C@@H](NC(=O)[C@H](C)NC(=O)[C@@H]1CSSC[C@H](NC(=O)[C@@H](N)CCCCNC(=O)CC[C@H](NC(=O)CCCCCCCCCCCCCCCCCCC(=O)O)C(=O)O)C(=O)N[C@@H](CC(N)=O)C(=O)N[C@@H]([C@@H](C)O)C(=O)N[C@@H](C)C(=O)N[C@@H]([C@@H](C)O)C(=O)N1)[C@@H](C)O)C(=O)N1CCC[C@H]1C(=O)N[C@@H](CO)C(=O)N[C@@H](CO)C(=O)N[C@H](C(=O)N[C@@H](CC(N)=O)C(=O)N[C@H](C(=O)NCC(=O)N1CCC[C@H]1C(=O)N[C@@H](CCC(=O)O)C(=O)N[C@H](C(=O)N[C@@H](Cc1ccc(O)cc1)C(N)=O)[C@@H](C)O)C(C)C)[C@@H](C)O
B3: N^ε1-[(4S)-4-carboxy-4-[[(4S)-4-carboxy-4-(19-carboxynonadecanoylamino)butanoyl]amino]butanoyl]-[Asp14,Arg17,Pro21,Pro27,Pro34,Glu35]-h-amylin (peptide)
peptide: K([γGlu-γGlu-C20 diacid])CNTATCATQRLADFLRHSSPNFGAIPSSTNVGPETY-NH2
modifications: disulfide 2-7; N-terminus assumed
SMILES: CC[C@H](C)[C@H](NC(=O)[C@H](C)NC(=O)CNC(=O)[C@H](Cc1ccccc1)NC(=O)[C@H](CC(N)=O)NC(=O)[C@@H]1CCCN1C(=O)[C@H](CO)NC(=O)[C@H](CO)NC(=O)[C@H](Cc1c[nH]cn1)NC(=O)[C@H](CCCNC(=N)N)NC(=O)[C@H](CC(C)C)NC(=O)[C@H](Cc1ccccc1)NC(=O)[C@H](CC(=O)O)NC(=O)[C@H](C)NC(=O)[C@H](CC(C)C)NC(=O)[C@H](CCCNC(=N)N)NC(=O)[C@H](CCC(N)=O)NC(=O)[C@@H](NC(=O)[C@H](C)NC(=O)[C@@H]1CSSC[C@H](NC(=O)[C@@H](N)CCCCNC(=O)CC[C@H](NC(=O)CC[C@H](NC(=O)CCCCCCCCCCCCCCCCCCC(=O)O)C(=O)O)C(=O)O)C(=O)N[C@@H](CC(N)=O)C(=O)N[C@@H]([C@@H](C)O)C(=O)N[C@@H](C)C(=O)N[C@@H]([C@@H](C)O)C(=O)N1)[C@@H](C)O)C(=O)N1CCC[C@H]1C(=O)N[C@@H](CO)C(=O)N[C@@H](CO)C(=O)N[C@H](C(=O)N[C@@H](CC(N)=O)C(=O)N[C@H](C(=O)NCC(=O)N1CCC[C@H]1C(=O)N[C@@H](CCC(=O)O)C(=O)N[C@H](C(=O)N[C@@H](Cc1ccc(O)cc1)C(N)=O)[C@@H](C)O)C(C)C)[C@@H](C)O

Numbered stars: 1 amine (or outer) side, 2 acyl side, 3 side chain; on linkers, the order of the positions; unused ones are H or OH. Bridge positions count the residues as written; N and C are the ends. Side chains are listed from the residue outwards. Ends that are not written are not given here. * marks the point of attachment. C20 diacid = O=C(O)CCCCCCCCCCCCCCCCCCC(=O)*; γGlu = O=C(O)[C@H](CCC(=O)[*:2])N[*:1]

The target of the first assay is T1, human calcitonin receptor. The experiment in a line: ratio of binding IC50s: human calcitonin receptor (Assay VII) over human amylin receptor (Assay V). As for the experimental part:
The resulting pellet was resuspended, homogenized and centrifuged (20.000 rpm, 15 min) in a buffer containing 20 mM Na-HEPES and 0.1 mM EDTA (pH 7.4, buffer 2). The resulting pellet was resuspended in buffer 2 and protein concentration was measured (BCA protein Assay, Pierce). The homogenate was kept cold during the whole procedure. The membranes were kept at −80° C. until use. The assay was performed in a 384 well Optiplate (PerkinElmer) in a total volume of 40 ul. Membranes were mixed with SPA beads. Final concentration of membranes 35 ng/μL final and SPA beads was 0.05 mg/well. Test-compounds were dissolved in DMSO and further diluted in assay buffer (50 mM Hepes, pH 7.4, 1 mM CaCl2, 5 mM MgCl₂, 0.1% OA and 0.02% Tween20). […] The final mixture was incubated with shaking at 400 rpm for 120 min at 25° C. prior to centrifugation (1500 rpm, 10 min). Samples were analyzed on TopCounter™ (Packard). The IC₅₀ was calculated using (one site binding competition analysis) GraphPad Prism5 as a measure of receptor affinity.
Membranes were prepared in the following way; the cells were rinsed with PBS and incubated with Versene for approximately 5 min before harvesting. The cells were flushed with PBS and the cell-suspension was centrifuged for 5 min at 1000 rpm. Cells were homogenized (Ultrathurrax) in a buffer containing 20 mM Na-HEPES and 10 mM EDTA (pH 7.4) and centrifuged at 20.000 rpm for 15 min. The resulting pellet was resuspended, homogenized and centrifuged (20.000 rpm, 15 min) in a buffer containing 20 mM Na-HEPES and 0.1 mM EDTA (pH 7.4, buffer 2). The resulting pellet was resuspended in buffer 2 and protein concentration was measured (BCA protein Assay, Pierce). The homogenate was kept cold during the whole procedure. The membranes were kept at −80° C. until use. Assay was performed in a 384 well Optiplate (PerkinElmer) in a total volume of 40 ul. Membranes were mixed with SPA beads.
Consider B1, for which the “Ratio hCT/hAmylin binding” value turned out to be 151.
Turning to B2, the “Ratio hCT/hAmylin binding” value is 16.7.
The same measure, in the same setting: in the case of B3 it was 49.8; in that of K([γGlu-γGlu-C20 diacid])CNTATCATQRLADFLRHSSPNFGAIPSSTNVGPRTY-NH2 (disulfide 2-7, also called compound 130), 280.

The next assay addresses T2, rat amylin receptor (rat calcitonin …). The experiment in a line: SPA competition binding, displacement of 125I-rat amylin from membranes of BHK tk'ts 13 cells with rat calcitonin receptor + rat RAMP 3 (Assay VI). The protocol:
The binding assay was performed using scintillation proximity assay (SPA) beads (RPNQ0001) from PerkinElmer and cell membranes from the Amylin 3(a)/CRE-luc cells (as described in Assay (II)) were used. Membranes were prepared in the following way; the cells were rinsed with PBS and incubated with Versene for approximately 5 min before harvesting. The cells were flushed with PBS and the cell-suspension was centrifuged for 5 min at 1000 rpm. Cells were homogenized (ultrathurrax) in a buffer containing 20 mM Na-HEPES and 10 mM EDTA (pH 7.4) and centrifuged at 20.000 rpm for 15 min. The resulting pellet was resuspended, homogenized and centrifuged (20.000 rpm, 15 min) in a buffer containing 20 mM Na-HEPES and 0.1 mM EDTA (pH 7.4, buffer 2). The resulting pellet was resuspended in buffer 2 and protein concentration was measured (BCA protein Assay, Pierce). The homogenate was kept cold during the whole procedure. The membranes were kept at −80° C. until use. The assay was performed in a 384 well Optiplate (PerkinElmer) in a total volume of 40 ul. Membranes were mixed with SPA beads. Final concentration of membranes 35 ng/μL final and SPA beads was 0.05 mg/well. Test-compounds were dissolved in DMSO and further diluted in assay buffer (50 mM Hepes, pH 7.4, 1 mM CaCl2, 5 mM MgCl₂, 0.1% OA and 0.02% Tween20). […] The final mixture was incubated with shaking at 400 rpm for 120 min at 25° C. prior to centrifugation (1500 rpm, 10 min). Samples were analyzed on TopCounter™ (Packard). The IC₅₀ was calculated using (one site binding competition analysis) GraphPad Prism5 as a measure of receptor affinity.
Cells were grown in DMEM with 10% FBS and 1% Pen/Strep. Approximately 48 hours after transfection, the cells were harvested and membranes were prepared.
For the molecule B1, the IC50 is 0.504 nM.
B2: the IC50 turned out to be 0.3 nM.
As for B3, the IC50 was found to be 0.324 nM.
Still for that read-out and setting: in the case of K([γGlu-γGlu-C20 diacid])CNTATCATQRLADFLRHSSPNFGAIPSSTNVGPRTY-NH2 (disulfide 2-7, also called compound 130) it was 0.93 nM.

Another assay deals with T3, rat calcitonin receptor. The experiment in a line: ratio of binding IC50s: rat calcitonin receptor (Assay VIII) over rat amylin receptor (Assay VI).
With B1, the “Ratio rCT/rAmylin binding” value was 116.
Regarding B2, the “Ratio rCT/rAmylin binding” value was 62.
Same read-out and setting: in the case of B3 it was 98.5; in that of K([γGlu-γGlu-C20 diacid])CNTATCATQRLADFLRHSSPNFGAIPSSTNVGPRTY-NH2 (disulfide 2-7, also called compound 130), 240.

A further assay addresses T3, rat calcitonin receptor. The experiment in a line: SPA competition binding, displacement of 125I-Calcitonin from membranes of BHK tk'ts 13 cells with rat calcitonin receptor (Assay VIII).
Regarding B1, the IC50 came out at 58.5 nM.
Consider B2, for which the IC50 was 18.6 nM.
In the case of B3, the IC50 stood at 31.9 nM.
Consider K([γGlu-γGlu-C20 diacid])CNTATCATQRLADFLRHSSPNFGAIPSSTNVGPRTY-NH2 (disulfide 2-7, also called compound 130), for which the IC50 was 223 nM.
